Holding throughout (assay): cell-based or functional assay
In test [1] the target is full-length subtype B consensus gp160 expressed on HEK293 cells (vector pConBgp160-opt) (HIV-1 subtype B (consensus)).
In test [2] the target is subtype C consensus gp160 protein expressed on HEK293 cells (vector pConCgp160-opt) (HIV-1 subtype C (consensus)).
Test [3] deals with CD19 on REH cells (human) (UniProt P15391).
UniProt P15391, sequence (P15391 20-556): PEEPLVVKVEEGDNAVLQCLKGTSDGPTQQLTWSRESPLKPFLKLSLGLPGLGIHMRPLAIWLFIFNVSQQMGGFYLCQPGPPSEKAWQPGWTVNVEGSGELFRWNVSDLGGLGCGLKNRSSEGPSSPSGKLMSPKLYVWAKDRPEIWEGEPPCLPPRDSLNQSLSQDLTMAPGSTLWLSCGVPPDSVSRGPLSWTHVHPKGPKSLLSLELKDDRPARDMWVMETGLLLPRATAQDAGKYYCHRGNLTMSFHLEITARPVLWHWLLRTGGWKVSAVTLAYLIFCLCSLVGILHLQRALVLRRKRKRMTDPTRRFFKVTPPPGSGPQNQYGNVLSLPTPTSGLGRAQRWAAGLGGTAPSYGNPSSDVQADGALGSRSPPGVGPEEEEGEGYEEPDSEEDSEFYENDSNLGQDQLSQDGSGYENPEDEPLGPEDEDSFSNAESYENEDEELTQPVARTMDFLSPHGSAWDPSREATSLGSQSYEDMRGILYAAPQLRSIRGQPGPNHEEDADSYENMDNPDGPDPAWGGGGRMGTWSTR

With DNP-conjugated 3BNC117 (antibody), in test [1], the IFN-γ production by anti-DNP CAR-NK cells (ELISA), adaptor 2 nM, against the isotype control was 2 fold; the percentage of gp160+ cells killed by anti-DNP CAR-NK cells, flow cytometry, 8 h, E:T 25:1, adaptor 2 nM is 50%; the percentage of gp160+ cells killed by universal CAR-NK cells is 45.5%. In test [2], the percentage of gp160+ cells killed by universal CAR-NK cells came to 19.7% and the percentage of subtype C gp160+ cells lysed by anti-DNP CAR-NK cells, 8 h, E:T 25:1, adaptor 2 nM was determined as 20%.

Take “2G12-based anti-gp160 CAR (pFUW-2G12-CD28-CD3ζ) on NK-92MI cells (from UniProt P01732 138-182; P10747 153-220; P20963 52-164)”: the percentage of gp160+ cells killed by 2G12 CAR-NK cells, E:T 25:1 in test [1] is 60%.

As for DNP-conjugated antibody 2G12, in test [1], the adaptor concentration at which IFN-γ production of CAR-NK cells reached a plateau is > 2 nM; the percentage of gp160+ cells killed by anti-DNP CAR-NK cells, flow cytometry, 8 h, E:T 25:1, adaptor 2 nM is 50%; the percentage of gp160+ cells killed by anti-DNP CAR-T cells, E/T 1:1, 48 h, adaptor 10 nM was 34%; the percentage of gp160+ cells killed by universal (anti-DNP) CAR-NK cells with DNP-conjugated 2G12, E:T 25:1 came to 50%.

Turning to DNP-conjugated PG9 (antibody), the percentage of gp160+ cells killed by anti-DNP CAR-NK cells, flow cytometry, 8 h, E:T 25:1, adaptor 2 nM in test [1] amounted to 50%. Further, the percentage of subtype C gp160+ cells killed by anti-DNP CAR-NK cells, 8 h, E:T 25:1, adaptor 2 nM in test [2] amounted to 30%.

The substance DNP-conjugated VRC01 (antibody) returned a percentage of gp160+ cells killed by anti-DNP CAR-NK cells, flow cytometry, 8 h, E:T 25:1, adaptor 2 nM in test [1] of 28.5%. Also, the percentage of subtype C gp160+ cells lysed by anti-DNP CAR-NK cells, 8 h, E:T 25:1, adaptor 2 nM in test [2] turned out to be 20%.

Consider “DNP-conjugated anti-CD19 antibody (clone FMC63)”, for which, in test [3], the percentage of REH cells killed by anti-DNP CAR-NK cells, flow cytometry, E:T 25:1, overnight, adaptor 50 nM is 59% and the percentage of REH cells remaining alive, flow cytometry, E:T 25:1, overnight, adaptor 50 nM was found to be 41%.

DNP-conjugated 10-1074 (antibody): in test [1], the percentage of gp160+ cells killed by anti-DNP CAR-NK cells, flow cytometry, 8 h, E:T 25:1, adaptor 2 nM is 50%; the percentage of gp160+ cells killed by anti-DNP CAR-T cells, E/T 1:1, 48 h, adaptor 10 nM came to 29%; the percentage of gp160+ cells killed by universal CAR-NK cells is 53.1%. In test [2], this substance showed a percentage of gp160+ cells killed by universal CAR-NK cells of 29.8% and a percentage of subtype C gp160+ cells killed by anti-DNP CAR-NK cells, 8 h, E:T 25:1, adaptor 2 nM of 30%.

The values are drawn from patent publication US20230295277A1.
